The results in this text go back to the RNAGym collection of RNA variant scans (doi:10.1073/pnas.2313332121).

Fewer inactive variants are shown than the library holds.

B1: TPR 5TU (parent)
chain: GGAUCUUCUCGAUCUAACAAAAAAGACAAAUCUGCCACAAAGCUUGAGAGCAUCUUCGGAUGCAGAGGCGGCAGCCUUCGGUGGCGCGAUAGCGCCAACGUUCUCAACUAUGACACGCAAAACGCGUGCUCCGUUGAAUGGAGUUUAUCAUG

In the data set the parent is B1. The data set can be described thus: polymerase ribozyme fitness, log enrichment relative to wild type (log ratio); higher = more active; in vitro selection for triplet polymerase activity. Put shortly: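 The heterodimeric triplet polymerase ribozyme's subunits were each mutagenized into PCR-built libraries and transcribed. Every library was selected once, in triplicate, by annealing with a biotinylated primer, the partner subunit and triplets, incubating frozen at −7 °C, gel-excising extended constructs, capturing on streptavidin beads and running RT-PCR. Input and output libraries were Illumina-sequenced, with genotypes kept only at ≥10 input reads and ≥1 read per output. Fitness, from inverse-variance-weighted replicate averages, is the base-2 logarithm of genotype enrichment over wild-type enrichment.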
For the variant C93U C125U, the “polymerase ribozyme fitness (log ratio)” value was -1.43.

As to A89U C95A A97U U111G G124A C149A U151C, the “polymerase ribozyme fitness (log ratio)” value is ≤ -4.2. For the variant A89G C93A, the “polymerase ribozyme fitness (log ratio)” value was -3.94. As for C96G U148A, the figure is -3.53; as for C93G C132G, ≤ -4.2.

In the case of A89C G124A, the “polymerase ribozyme fitness (log ratio)” value is -1.59.

In the case of A98U C105A A119G A121C, the “polymerase ribozyme fitness (log ratio)” value was -0.491.

As for A98U A120U G143C, the “polymerase ribozyme fitness (log ratio)” value was -2.39. The same measure for A91U U139A G140C G143C: ≤ -4.2. For C95U C118U, the “polymerase ribozyme fitness (log ratio)” value was -1.09. As for G94U G100U, the figure is -3.85; as for G94C U151A, -3.85. As for G94A A106C G136A, the figure is -0.404; as for C95U C99A, -0.15. For C95U C99U, the “polymerase ribozyme fitness (log ratio)” value was -1.09. Consider G92A C125A U134G, for which the “polymerase ribozyme fitness (log ratio)” value is -3.58. In the case of C93U C123U U127C U135C, the “polymerase ribozyme fitness (log ratio)” value was ≤ -4.2. The same measure for C93U A137G: -3.18; for A91C A106G: ≤ -4.2. Consider C93A C132G A138C G140U G141C, for which the “polymerase ribozyme fitness (log ratio)” value was ≤ -4.2. The same measure for A97U U134G: -2.5; for G94C A150U: 1.09. Turning to C93U C95U, the “polymerase ribozyme fitness (log ratio)” value is -2.43. A89G C95A G136U: the “polymerase ribozyme fitness (log ratio)” value is -3.75.

Consider G92C G94A, for which the “polymerase ribozyme fitness (log ratio)” value is -2.95. The same measure for A89C G143A: -0.0918; for G94A G117C A137G: -3.09; for A91U A98G U102G C105U: ≤ -4.2. With G92C U148G, the “polymerase ribozyme fitness (log ratio)” value was -3.89. Take G92C U148C: the “polymerase ribozyme fitness (log ratio)” value is -2.56. For G92U A115C, the “polymerase ribozyme fitness (log ratio)” value is -2.23. As for U90C G126U, the figure is -3.66. The same measure for A97G G133A: -3.61.

Regarding C93U C116U A122U A150C, the “polymerase ribozyme fitness (log ratio)” value is -3.57. As for G92U C96A U127C U145C A147C, the figure is ≤ -4.2. Consider C96G U139G G140U C149A, for which the “polymerase ribozyme fitness (log ratio)” value was ≤ -4.2.

As for G94A U101C, the “polymerase ribozyme fitness (log ratio)” value is -0.823. The same measure for C93U A119G C123U U135G: -4.18; for G94C A115U: -2.98; for C93U C99G G136A U145G: -1.59. The same measure for C93A C105A: ≤ -4.2; for G92A A138C U148C: ≤ -4.2; for A91C C114U U139C: ≤ -4.2.

Turning to A91G C118G G143C, the “polymerase ribozyme fitness (log ratio)” value is ≤ -4.2. For A91U U145G, the “polymerase ribozyme fitness (log ratio)” value is ≤ -4.2. As for C95U A97U C99U G133U A150G, the figure is ≤ -4.2; as for C96U G128U U146C, -3.35. The same measure for C96U C114U A150U: -3.94; for C93G A119U: -3.51; for A91C A115G U146A: ≤ -4.2.

Regarding A89U C99G A142U, the “polymerase ribozyme fitness (log ratio)” value is -2.38. As for A91U U104A G141A U148A, the figure is ≤ -4.2; as for C93U C118A U144G, -1.06. The same measure for G94U: 1.12; for G94A: -0.622.

Turning to G94C, the “polymerase ribozyme fitness (log ratio)” value is -0.474.

For the variant A91U C118G G141C, the “polymerase ribozyme fitness (log ratio)” value was -3.94.

Regarding G92U U101G C131U, the “polymerase ribozyme fitness (log ratio)” value turned out to be 0.547.

With G94C G133A, the “polymerase ribozyme fitness (log ratio)” value is -4.02.

As for G92A A98C G133C A142U, the “polymerase ribozyme fitness (log ratio)” value is ≤ -4.2.

For the variant C96A U146A U148A, the “polymerase ribozyme fitness (log ratio)” value is -4.17. A89U G94U: the “polymerase ribozyme fitness (log ratio)” value was -1.2. As for C93A A137U, the “polymerase ribozyme fitness (log ratio)” value is ≤ -4.2. As for C95U U104G, the figure is -2.11. With C93A C116A G126A G141C, the “polymerase ribozyme fitness (log ratio)” value is ≤ -4.2. As to G94C G100U, the “polymerase ribozyme fitness (log ratio)” value was -3.69. For C96U U104G, the “polymerase ribozyme fitness (log ratio)” value was -1.59. The same measure for C95U U102G C105U: -2.98; for C95U U146G: -1.04. The same measure for A98U A107U C125A A147G: ≤ -4.2; for A91C U144C: -4.19; for G94U U151A: ≤ -4.2. In the case of A89U A122U, the “polymerase ribozyme fitness (log ratio)” value was -0.615. The same measure for C93A C99G: -3.88; for A91C A98G A122U U144C A147U A150C: ≤ -4.2; for G92C A122C A150G: -2.28.

In the case of C95U C99A G117U U148A, the “polymerase ribozyme fitness (log ratio)” value was ≤ -4.2.

Take G92A G126U: the “polymerase ribozyme fitness (log ratio)” value was -2.26. In the case of C93A C95A U104A G141C, the “polymerase ribozyme fitness (log ratio)” value was ≤ -4.2. As for G94A C95G G133A U134G A137U, the figure is -4.11. Consider C93A U127C, for which the “polymerase ribozyme fitness (log ratio)” value was -3.6.

Turning to C96A C116U G136U A150G, the “polymerase ribozyme fitness (log ratio)” value is -4.06. The same measure for C95U C116G U135A: -2.67; for A98U C105U: 0.54.

For the variant G94A A97G, the “polymerase ribozyme fitness (log ratio)” value was -2.19. As for C93U C95G A113G A137U A138U, the “polymerase ribozyme fitness (log ratio)” value is ≤ -4.2. On to C93A C118G, for which the “polymerase ribozyme fitness (log ratio)” value was -3.44. As to C93A C118U, the “polymerase ribozyme fitness (log ratio)” value was -3.29. The same measure for G92A C116U C125U U134C: ≤ -4.2; for G94A A113U A120U: -1.56. The same measure for C96G G112A: -4.07; for G94A A97U C125G: -2.14; for C93U U146A: -1.46.

Consider C93U U146G, for which the “polymerase ribozyme fitness (log ratio)” value was -1.47. As for C96A U134A, the figure is -2.73; as for G94U A98U C99G A147G, -3.16. In the case of A89G C95U A142C, the “polymerase ribozyme fitness (log ratio)” value is -2.81. As for C95U C96U C118U C125A C129G, the figure is ≤ -4.2; as for A89U U90C G94U C114U G117U G133U, ≤ -4.2. Regarding A91U A106C C125A, the “polymerase ribozyme fitness (log ratio)” value is ≤ -4.2. As for C96U U146C, the figure is -0.67. As for A98U A147C, the figure is 0.168; as for G92C C99A A138C, ≤ -4.2; as for C96U C123U G136U, -2.2. As for C96A A97G G143A, the figure is -0.965; as for G92U A138G, -3.48; as for G94A A120C, -0.523. As to G94A U101C G136C A137G U151A, the “polymerase ribozyme fitness (log ratio)” value is ≤ -4.2. Regarding C96U G124A, the “polymerase ribozyme fitness (log ratio)” value was -0.382. For the variant C96U G124U, the “polymerase ribozyme fitness (log ratio)” value is -0.372.

C93G U144A: the “polymerase ribozyme fitness (log ratio)” value is -2.68.

Regarding G92U G133C, the “polymerase ribozyme fitness (log ratio)” value is -2.1. Turning to A91U C96U C103A U109C, the “polymerase ribozyme fitness (log ratio)” value is ≤ -4.2. The same measure for C93U G152A: -3.11. As for C93U G152U, the figure is -3.49; as for C93U C99U C114G, -3.73; as for A91U A147U, -3.99. For G94C G128U, the “polymerase ribozyme fitness (log ratio)” value is -3.18. For C96A A122C U139G A150C, the “polymerase ribozyme fitness (log ratio)” value is -3.67. As for C95U C149A, the figure is ≤ -4.2; as for C93G C118U C123U, -3.29; as for G94A U101G U148A, -4.03. Consider C93G U146G, for which the “polymerase ribozyme fitness (log ratio)” value is -3.41.

Take G92A C96A C103G C105U A107G A119G C125U C149A: the “polymerase ribozyme fitness (log ratio)” value was ≤ -4.2. Consider G92C A98U G143A, for which the “polymerase ribozyme fitness (log ratio)” value was -1.77. The same measure for U90C U148G: ≤ -4.2; for A91C A113G: -4.15; for C93U A121C G140C: ≤ -4.2.

On to C93A A106C, for which the “polymerase ribozyme fitness (log ratio)” value was -2.63. As for C93A G141A, the figure is -1.74; as for A89U A150C, -3.66; as for A91G U144A, -3.08. As for C96A C125G, the figure is -0.535.

On to C93U U151A, for which the “polymerase ribozyme fitness (log ratio)” value was ≤ -4.2.

For the variant G92U A121G G143C U145G, the “polymerase ribozyme fitness (log ratio)” value is -3.44. In the case of G94C U135A G141A, the “polymerase ribozyme fitness (log ratio)” value was -2.22. As for C96U A115C, the figure is -2.68; as for C93U A137G C149U, -2.47. As for C93A A115C, the “polymerase ribozyme fitness (log ratio)” value is -3.22.

On to C93U C116U G141A, for which the “polymerase ribozyme fitness (log ratio)” value was -0.0845.

Consider U90C C96U, for which the “polymerase ribozyme fitness (log ratio)” value is -3.69. Consider C93A U104C, for which the “polymerase ribozyme fitness (log ratio)” value is -3.27. Regarding G92U A147C, the “polymerase ribozyme fitness (log ratio)” value is -0.377. As for A91U C93A A122U G143C, the “polymerase ribozyme fitness (log ratio)” value was ≤ -4.2. As for C96A G133U, the figure is -3.9; as for C96A C118U U148C, -2.57; as for A98G A107U, -3.24. As for C95U G124C, the figure is -0.723; as for C93G G140U, ≤ -4.2. As for A91G C108U C116G G152A, the figure is -3.48.

Consider G92A A97G A122U U148C, for which the “polymerase ribozyme fitness (log ratio)” value is -3.63.

C96G A98U: the “polymerase ribozyme fitness (log ratio)” value is -0.873. As for A97G A98U, the figure is -0.253. The same measure for G94C A137C C149U: -3.76; for U90A U130A: ≤ -4.2. As for A91C U102G A138C, the figure is ≤ -4.2; as for C96A C118U, -1.8. Regarding G92C G141C, the “polymerase ribozyme fitness (log ratio)” value is -0.623. The same measure for A91G U130G A150G: ≤ -4.2; for C96G U146C: -1.45; for C96G C116G: 0.127.

Regarding A91G C123U, the “polymerase ribozyme fitness (log ratio)” value was -2.7. A91G C123G: the “polymerase ribozyme fitness (log ratio)” value was -2.82.

In the case of G92A G124A, the “polymerase ribozyme fitness (log ratio)” value is -2.65. The same measure for C95U U139G U148A: -3.14; for G92A C116G: -2.6; for G92A C116U: -2.29.
